# Test results published in patent publication US20160031946A1.
# Biological target: OVA257-264 (SIINFEKL) presented by H-2Kb on dendritic cells (chicken; mouse)
# Test: cell-based or functional assay
substance,measurement,value
"OT-1 T cell receptor (TCR of OT-1 TCR transgenic mice, specific for the OVA257-264 epitope)","proliferating CD8+ T cells (CFSE dilution), BMDCs loaded with ZEBRA-OVA257-264 after maturation",70%
same,"proliferating CD8+ T cells (CFSE dilution), BMDCs loaded with ZEBRA-OVA257-264 before maturation",69%
same,"proliferating CD8+ T cells (CFSE dilution, 5 days), DCs loaded with ZEBRA-OVA257-264",81%
same,"proliferating CD8+ T cells (CFSE dilution, 5 days), DCs pulsed with 10 uM Ova peptide (positive control)",93%
